The target in one assay is NiuD permease subunit of the NiuBDE nickel ABC transporter, full length, fused to the T18 fragment (pUT18). Description: bacterial two-hybrid (BACTH), ß-galactosidase activity. The settings on record: E. coli strain BTH101; each measurement was performed three times; parent: est. 2400; read off a plot.
Turning to “SlyD wild type fused to the T25 fragment of Bordetella pertussis adenylate cyclase (pNKT25) (from UniProt O25748) I47S; Y73A; F137Y”, the response was 1800 Miller Units.

In another assay the target is NiuDΔ7, C-terminally truncated NiuD fused to the T18 fragment. The description is as above. The settings on record: E. coli strain BTH101; each measurement was performed three times; parent: est. 2500; read off a plot.
As for “SlyD wild type fused to the T25 fragment of Bordetella pertussis adenylate cyclase (pNKT25) (from UniProt O25748) I47S; Y73A; F137Y”, the response amounted to 2100 Miller Units.

In a further assay the target is SlyD wild type fused to the T25 fragment of Bordetella pertussis adenylate cyclase (pNKT25) (UniProt O25748). The description is as above. To be noted: E. coli strain BTH101; each measurement was performed three times; parent: est. 2500; read off a plot.
As for “NiuDΔ7, C-terminally truncated NiuD fused to the T18 fragment P203V”, the response is 1500 Miller Units.

Turning to “NiuDΔ7, C-terminally truncated NiuD fused to the T18 fragment R208G; W209G; R210G”, the response came to 30 Miller Units.

Regarding “NiuDΔ7, C-terminally truncated NiuD fused to the T18 fragment R208Q”, the response worked out at 95 Miller Units.

On to “NiuDΔ7, C-terminally truncated NiuD fused to the T18 fragment R208S”, for which the response was 1000 Miller Units.

For “NiuDΔ7, C-terminally truncated NiuD fused to the T18 fragment R210G”, the response came to 120 Miller Units.

For “NiuDΔ7, C-terminally truncated NiuD fused to the T18 fragment W209F”, the response is 1200 Miller Units.

In the case of “NiuDΔ7, C-terminally truncated NiuD fused to the T18 fragment W209G”, the response was 720 Miller Units.
